Measured values from patent publication US20010009766A1.

How the values were obtained:
[1] = molecular target: human GALR3 receptor (human) (UniProt O60755); assay: cell-based or functional assay
rat GALR3 receptor (rat) [2] = assay: apparent binding affinity, rat GalR3 in COS-7 (repeats Table 4)
rat GALR3 receptor (rat) [3] = assay: displacement of porcine 125I-galanin, membranes of stable cell line 293-rGalR3-105
rat GALR1 receptor (rat) = assay: displacement of porcine 125I-galanin, membranes of transiently transfected COS-7 cells
rat GALR3 receptor (rat) [4] = assay: as above
rat GALR3 receptor (rat) [5] = assay: displacement of porcine 125I-galanin, rat GalR3 transiently expressed in COS-7 membranes
[6] = molecular target: human GALR3 receptor (human) (UniProt O60755); assay: displacement of porcine 125I-galanin, membranes of stable LM(tk-) line L-hGalR3-228
rat GALR2 receptor (rat) = rat GALR2 receptor (rat) (UniProt O08726); assay: displacement of porcine 125I-galanin, membranes of transiently transfected COS-7 cells
Sequence of rat GALR2 receptor (rat) (O08726 whole entry): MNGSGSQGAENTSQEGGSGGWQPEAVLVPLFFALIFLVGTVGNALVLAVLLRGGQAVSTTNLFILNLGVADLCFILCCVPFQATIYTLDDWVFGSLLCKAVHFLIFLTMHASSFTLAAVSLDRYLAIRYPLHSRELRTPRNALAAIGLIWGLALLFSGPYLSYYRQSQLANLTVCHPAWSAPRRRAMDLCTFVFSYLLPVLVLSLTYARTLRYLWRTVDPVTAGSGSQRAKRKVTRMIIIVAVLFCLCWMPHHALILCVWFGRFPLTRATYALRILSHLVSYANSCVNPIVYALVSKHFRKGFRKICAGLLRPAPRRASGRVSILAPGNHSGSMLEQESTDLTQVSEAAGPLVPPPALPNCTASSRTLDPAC

Sequence of human GALR3 receptor (human) (O60755 whole entry, form in doubt): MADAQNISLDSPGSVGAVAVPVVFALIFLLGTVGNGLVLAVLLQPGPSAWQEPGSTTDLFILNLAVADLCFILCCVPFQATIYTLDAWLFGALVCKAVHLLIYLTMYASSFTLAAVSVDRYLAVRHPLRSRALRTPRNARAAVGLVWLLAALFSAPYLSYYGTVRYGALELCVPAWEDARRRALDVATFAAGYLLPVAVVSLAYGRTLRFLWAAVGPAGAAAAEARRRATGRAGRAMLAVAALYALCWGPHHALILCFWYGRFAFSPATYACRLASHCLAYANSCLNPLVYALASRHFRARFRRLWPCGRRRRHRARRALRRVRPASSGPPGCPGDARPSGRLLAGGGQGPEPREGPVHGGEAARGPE

Substance	Oocyte EC50 (stimulation of GIRKs) [1] [nM]	Ki (rat GALR3 receptor (rat) [2]) [nM]	Ki (rat GALR3 receptor (rat) [3]) [nM]	Ki (rat GALR1 receptor (rat)) [nM]	Ki (rat GALR3 receptor (rat) [4]) [nM]	Ki (rat GALR3 receptor (rat) [5]) [nM]	Ki [6] [nM]	Ki (rat GALR2 receptor (rat)) [nM]
C7 (peptide)	343	23	9.6	16	68	23		
D-Trp2-galanin 1-16 (peptide)					> 1000			
D-Trp2-galanin 1-29 (peptide)					> 1000			
M35 (peptide)			3.2	0.33	6.7	3.7	7.8	0.57
galanin -7 to +29 (peptide)	1910							
galantide (peptide)				9.5	18	9		2
